Test results taken from IntAct's records for PubMed 26728129.

B1: Probable proton-coupled zinc antiporter SLC30A3 (Homo sapiens), Q99726 (parent)
chain: MEPSPAAGGLETTRLVSPRDRGGAGGSLRLKSLFTEPSEPLPEESKPVEMPFHHCHRDPLPPPGLTPERLHARRQLYAACAVCFVFMAGEVVGGYLAHSLAIMTDAAHLLADVGSMMGSLFSLWLSTRPATRTMTFGWHRSETLGALASVVSLWMVTGILLYLAFVRLLHSDYHIEGGAMLLTASIAVCANLLMAFVLHQAGPPHSHGSRGAEYAPLEEGPEEPLPLGNTSVRAAFVHVLGDLLQSFGVLAASILIYFKPQYKAADPISTFLFSICALGSTAPTLRDVLRILMEGTPRNVGFEPVRDTLLSVPGVRATHELHLWALTLTYHVASAHLAIDSTADPEAVLAEASSRLYSRFGFSSCTLQVEQYQPEMAQCLRCQEPPQA
partner: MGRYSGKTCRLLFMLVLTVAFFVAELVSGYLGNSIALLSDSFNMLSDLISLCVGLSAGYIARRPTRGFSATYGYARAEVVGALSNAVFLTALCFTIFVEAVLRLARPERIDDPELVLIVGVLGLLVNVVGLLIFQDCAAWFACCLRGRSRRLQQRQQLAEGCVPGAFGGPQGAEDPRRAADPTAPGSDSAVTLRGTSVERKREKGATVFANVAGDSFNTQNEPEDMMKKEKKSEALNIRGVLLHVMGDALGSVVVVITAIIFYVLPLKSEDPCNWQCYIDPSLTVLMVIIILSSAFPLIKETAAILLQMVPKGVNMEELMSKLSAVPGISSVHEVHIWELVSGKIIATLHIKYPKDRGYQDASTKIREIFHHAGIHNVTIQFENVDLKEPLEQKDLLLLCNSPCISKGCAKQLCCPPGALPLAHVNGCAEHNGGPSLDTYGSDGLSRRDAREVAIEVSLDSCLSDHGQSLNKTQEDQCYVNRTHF
B2: Calcium/manganese antiporter SLC30A10 (Homo sapiens), Q6XR72 (parent)
chain: B1 partner
partner: B1 chain
B3: Probable proton-coupled zinc antiporter SLC30A3 (Homo sapiens), Q99726 (parent)
chain: B1 chain
partner: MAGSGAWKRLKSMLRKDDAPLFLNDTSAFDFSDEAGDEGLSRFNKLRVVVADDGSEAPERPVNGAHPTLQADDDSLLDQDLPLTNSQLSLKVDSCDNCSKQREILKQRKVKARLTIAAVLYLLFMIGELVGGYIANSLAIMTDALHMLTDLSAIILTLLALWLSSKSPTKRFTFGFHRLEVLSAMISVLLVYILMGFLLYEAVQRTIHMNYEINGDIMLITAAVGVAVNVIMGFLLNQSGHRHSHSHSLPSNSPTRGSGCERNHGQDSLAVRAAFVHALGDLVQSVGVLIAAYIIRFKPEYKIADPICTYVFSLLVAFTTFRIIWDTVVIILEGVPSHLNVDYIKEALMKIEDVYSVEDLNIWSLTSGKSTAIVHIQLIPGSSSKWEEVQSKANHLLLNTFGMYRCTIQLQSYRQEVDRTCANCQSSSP

Variants of: B1
Settings: with znt10_human SLC30A10, Q6XR72

effect of a mutation on the interaction | Variant
decreasing interaction strength | MEPSPAAGGLETTRLVSPRDRGGAGGSLRLKSLFTEPSEPLPEESKPVEMPFHHCHRDPLPPPGLTPERLHARRQLYAACAVCFVFMAGEVVGGYLAHSLAIMTDAAHLLADVGSMMGSLFSLWLSTRPATRTMTFGWHRSETLGALASVVSLWMVTGILLYLAFVRLLHSDYHIEGGAMLLTASIAVCANLLMAFVLHQAGPPHSHGSRGAEYAPLEEGPEEPLPLGNTSVRAAFVHVLGDLLQSFGVLAASILIYFKPQFKAADPISTFLFSICALGSTAPTLRDVLRILMEGTPRNVGFEPVRDTLLSVPGVRATHELHLWALTLTYHVASAHLAIDSTADPEAVLAEASSRLYSRFGFSSCTLQVEQYQPEMAQCLRCQEPPQA [Y262F]
decreasing interaction strength | MEPSPAAGGLETTRLVSPRDRGGAGGSLRLKSLFTEPSEPLPEESKPVEMPFHHCHRDPLPPPGLTPERLHARRQLYAACAVCFVFMAGEVVGGYLAHSLAIMTDAAHLLADVGSMMGSLFSLWLSTRPATRTMTFGWHRSETLGALASVVSLWMVTGILLYLAFVRLLHSDYHIEGGAMLLTASIAVCANLLMAFVLHQAGPPHSHGSRGAEYAPLEEGPEEPLPLGNTSVRAAFVHVLGDLLQSFGVLAASILIFFKPQYKAADPISTFLFSICALGSTAPTLRDVLRILMEGTPRNVGFEPVRDTLLSVPGVRATHELHLWALTLTYHVASAHLAIDSTADPEAVLAEASSRLYSRFGFSSCTLQVEQYQPEMAQCLRCQEPPQA [Y257F]

Variants of: B2
Settings: with znt3_human SLC30A3, Q99726

effect of a mutation on the interaction | Variant
decreasing interaction strength | MGRFSGKTCRLLFMLVLTVAFFVAELVSGYLGNSIALLSDSFNMLSDLISLCVGLSAGYIARRPTRGFSATYGYARAEVVGALSNAVFLTALCFTIFVEAVLRLARPERIDDPELVLIVGVLGLLVNVVGLLIFQDCAAWFACCLRGRSRRLQQRQQLAEGCVPGAFGGPQGAEDPRRAADPTAPGSDSAVTLRGTSVERKREKGATVFANVAGDSFNTQNEPEDMMKKEKKSEALNIRGVLLHVMGDALGSVVVVITAIIFYVLPLKSEDPCNWQCYIDPSLTVLMVIIILSSAFPLIKETAAILLQMVPKGVNMEELMSKLSAVPGISSVHEVHIWELVSGKIIATLHIKYPKDRGYQDASTKIREIFHHAGIHNVTIQFENVDLKEPLEQKDLLLLCNSPCISKGCAKQLCCPPGALPLAHVNGCAEHNGGPSLDTYGSDGLSRRDAREVAIEVSLDSCLSDHGQSLNKTQEDQCYVNRTHF [Y4F]

Variants of: B3
Settings: with znt4_human SLC30A4, O14863

effect of a mutation on the interaction | Variant
decreasing interaction strength | MEPSPAAGGLETTRLVSPRDRGGAGGSLRLKSLFTEPSEPLPEESKPVEMPFHHCHRDPLPPPGLTPERLHARRQLYAACAVCFVFMAGEVVGGYLAHSLAIMTDAAHLLADVGSMMGSLFSLWLSTRPATRTMTFGWHRSETLGALASVVSLWMVTGILLYLAFVRLLHSDYHIEGGAMLLTASIAVCANLLMAFVLHQAGPPHSHGSRGAEYAPLEEGPEEPLPLGNTSVRAAFVHVLGDLLQSFGVLAASILIYFKPQFKAADPISTFLFSICALGSTAPTLRDVLRILMEGTPRNVGFEPVRDTLLSVPGVRATHELHLWALTLTYHVASAHLAIDSTADPEAVLAEASSRLYSRFGFSSCTLQVEQYQPEMAQCLRCQEPPQA [Y262F]
decreasing interaction strength | MEPSPAAGGLETTRLVSPRDRGGAGGSLRLKSLFTEPSEPLPEESKPVEMPFHHCHRDPLPPPGLTPERLHARRQLYAACAVCFVFMAGEVVGGYLAHSLAIMTDAAHLLADVGSMMGSLFSLWLSTRPATRTMTFGWHRSETLGALASVVSLWMVTGILLYLAFVRLLHSDYHIEGGAMLLTASIAVCANLLMAFVLHQAGPPHSHGSRGAEYAPLEEGPEEPLPLGNTSVRAAFVHVLGDLLQSFGVLAASILIFFKPQYKAADPISTFLFSICALGSTAPTLRDVLRILMEGTPRNVGFEPVRDTLLSVPGVRATHELHLWALTLTYHVASAHLAIDSTADPEAVLAEASSRLYSRFGFSSCTLQVEQYQPEMAQCLRCQEPPQA [Y257F]
